Consider 19 substances from patent US20210130436A1.

One assay concerns the target PD-L1 (human) (UniProt Q9NZQ7). In words: cell-based or functional assay.
The next assay addresses CD28 (human) (UniProt P10747). In words: cell-based or functional assay.

Chain of PD-L1 (human) (Q9NZQ7 19-290): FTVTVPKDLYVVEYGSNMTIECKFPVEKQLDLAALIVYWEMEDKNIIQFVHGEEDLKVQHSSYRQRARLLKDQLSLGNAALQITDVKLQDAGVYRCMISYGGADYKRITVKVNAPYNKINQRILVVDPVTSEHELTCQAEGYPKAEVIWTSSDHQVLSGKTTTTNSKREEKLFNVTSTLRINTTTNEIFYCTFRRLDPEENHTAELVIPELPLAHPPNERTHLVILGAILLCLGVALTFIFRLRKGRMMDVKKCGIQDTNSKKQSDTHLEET

For the substance “CD80 IgV-Fc (inert) H18Y/E35D/M47V/V68M/A71G (from UniProt P33681 35-141) (Fc fusion)”, the RLU, Jurkat/IL2 + CHO/OKT3/PD-L1 Reporter Assay, CD80 Conc 5.0 nM with PD-L1 (human) was 963 RLU.

In the assay with CD28 (human), “variant CD80 IgV-Fc (effector) E23G/A26S/E35D/T62N/A71D/L72V/L85M (Fc fusion)” came in with an IL-2 release, primary T cells; K562/OKT3 (No PD-L1); 1 nM of 15400; an IL-2 release, primary T cells; K562/OKT3 (No PD-L1); 10 nM of 23500; an IL-2 release, primary T cells; K562/OKT3 (No PD-L1); 100 nM of 27000; an RLU, Jurkat/IL2 reporter; K562/OKT3 aAPC, FcR Dependent Cross-Linking (No PD-L1); 0.6 nM of 2020 RLU. Besides, in the assay with CD28 (human), the RLU, Jurkat/IL2 reporter; K562/OKT3 aAPC, FcR Dependent Cross-Linking (No PD-L1); 1.9 nM amounted to 3300 RLU; the RLU, Jurkat/IL2 reporter; K562/OKT3 aAPC, FcR Dependent Cross-Linking (No PD-L1); 5.6 nM was determined as 5050 RLU; the RLU, Jurkat/IL2 reporter; K562/OKT3 aAPC, FcR Dependent Cross-Linking (No PD-L1); 16.7 nM is 7010 RLU; the RLU, Jurkat/IL2 reporter; K562/OKT3 aAPC, FcR Dependent Cross-Linking (No PD-L1); 50 nM worked out at 7860 RLU. For the same substance, in the assay with PD-L1 (human), the RLU, Jurkat/IL2 reporter; K562/OKT3/PD-L1 aAPC, Combination of FcR and/or PD-L1 Dependent Cross-Linking; 0.6 nM was found to be 1150 RLU; the RLU, Jurkat/IL2 reporter; K562/OKT3/PD-L1 aAPC, Combination of FcR and/or PD-L1 Dependent Cross-Linking; 1.9 nM was found to be 1950 RLU; the RLU, Jurkat/IL2 reporter; K562/OKT3/PD-L1 aAPC, Combination of FcR and/or PD-L1 Dependent Cross-Linking; 5.6 nM is 3220 RLU; the RLU, Jurkat/IL2 reporter; K562/OKT3/PD-L1 aAPC, Combination of FcR and/or PD-L1 Dependent Cross-Linking; 16.7 nM amounted to 4040 RLU. Moreover, the RLU, Jurkat/IL2 reporter; K562/OKT3/PD-L1 aAPC, Combination of FcR and/or PD-L1 Dependent Cross-Linking; 50 nM with PD-L1 (human) came to 4140 RLU.

As to “CD80 IgV-Fc D46V/M47I/A71G (from UniProt P33681 35-141) (Fc fusion)”, in the assay with PD-L1 (human), the Jurkat/IL2 + CHO/OKT3/PD-L1 reporter assay, RLU at CD80 Conc 5.0 nM was 1600 RLU.

Turning to “CD80 IgV-Fc E35D/M43I/D46E/A71G/L85M (from UniProt P33681 35-141) (Fc fusion)”, the Jurkat/IL2 + CHO/OKT3/PD-L1 reporter assay, RLU at CD80 Conc 5.0 nM with PD-L1 (human) was determined as 1480 RLU.

For the substance “variant CD80 IgV-Fc (inert) E35G/K54E/A71D/L72P (Fc fusion)”, in the assay with CD28 (human), the IL-2-luciferase RLU, Jurkat + CHO/OKT3/PD-L1 aAPC, 0.6 nM came to 529 RLU; the IL-2-luciferase RLU, Jurkat + CHO/OKT3/PD-L1 aAPC, 1.9 nM stood at 489 RLU; the IL-2-luciferase RLU, Jurkat + CHO/OKT3/PD-L1 aAPC, 5.6 nM was found to be 554 RLU; the IL-2-luciferase RLU, Jurkat + CHO/OKT3/PD-L1 aAPC, 16.7 nM came to 504 RLU. Moreover, in the assay with CD28 (human), the IL-2-luciferase RLU, Jurkat + CHO/OKT3/PD-L1 aAPC, 50 nM is 476 RLU; the IL-2-luciferase RLU, Jurkat + CHO/OKT3 aAPC (no PD-L1), 5.6 nM worked out at 417 RLU; the IL-2-luciferase RLU, Jurkat + CHO/OKT3 aAPC (no PD-L1), 16.7 nM was 475 RLU; the IL-2-luciferase RLU, Jurkat + CHO/OKT3 aAPC (no PD-L1), 50 nM worked out at 440 RLU. The same substance displayed an IL-2 release, primary T cells; K562/OKT3/PD-L1; 100 nM with PD-L1 (human) of 59.

In the assay with CD28 (human), “variant CD80 IgV-Fc (effector) E35D/D46V/L85Q (Fc fusion)” returned an IL-2 release, primary T cells; K562/OKT3 (No PD-L1); 1 nM of 14300; an IL-2 release, primary T cells; K562/OKT3 (No PD-L1); 10 nM of 21500; an IL-2 release, primary T cells; K562/OKT3 (No PD-L1); 100 nM of 25400; an RLU, Jurkat/IL2 reporter; K562/OKT3 aAPC, FcR Dependent Cross-Linking (No PD-L1); 0.6 nM of 1880 RLU. In the assay with CD28 (human), this substance displayed an RLU, Jurkat/IL2 reporter; K562/OKT3 aAPC, FcR Dependent Cross-Linking (No PD-L1); 1.9 nM of 2720 RLU; an RLU, Jurkat/IL2 reporter; K562/OKT3 aAPC, FcR Dependent Cross-Linking (No PD-L1); 5.6 nM of 4400 RLU; an RLU, Jurkat/IL2 reporter; K562/OKT3 aAPC, FcR Dependent Cross-Linking (No PD-L1); 16.7 nM of 6020 RLU; an RLU, Jurkat/IL2 reporter; K562/OKT3 aAPC, FcR Dependent Cross-Linking (No PD-L1); 50 nM of 7020 RLU. In the assay with PD-L1 (human), the RLU, Jurkat/IL2 reporter; K562/OKT3/PD-L1 aAPC, Combination of FcR and/or PD-L1 Dependent Cross-Linking; 0.6 nM was found to be 1420 RLU; the RLU, Jurkat/IL2 reporter; K562/OKT3/PD-L1 aAPC, Combination of FcR and/or PD-L1 Dependent Cross-Linking; 1.9 nM was 2430 RLU; the RLU, Jurkat/IL2 reporter; K562/OKT3/PD-L1 aAPC, Combination of FcR and/or PD-L1 Dependent Cross-Linking; 5.6 nM worked out at 3310 RLU; the RLU, Jurkat/IL2 reporter; K562/OKT3/PD-L1 aAPC, Combination of FcR and/or PD-L1 Dependent Cross-Linking; 16.7 nM came to 3640 RLU. In addition, in the assay with PD-L1 (human), the RLU, Jurkat/IL2 reporter; K562/OKT3/PD-L1 aAPC, Combination of FcR and/or PD-L1 Dependent Cross-Linking; 50 nM came out at 4130 RLU.

As for “variant CD80 IgV-Fc (inert) E35D/M47I/L70M (Fc fusion)”, in the assay with CD28 (human), the IL-2-luciferase RLU, Jurkat + CHO/OKT3/PD-L1 aAPC, 0.6 nM is 1000 RLU; the IL-2-luciferase RLU, Jurkat + CHO/OKT3/PD-L1 aAPC, 1.9 nM amounted to 1640 RLU; the IL-2-luciferase RLU, Jurkat + CHO/OKT3/PD-L1 aAPC, 5.6 nM stood at 2350 RLU; the IL-2-luciferase RLU, Jurkat + CHO/OKT3/PD-L1 aAPC, 16.7 nM amounted to 2630 RLU. Further, in the assay with CD28 (human), the IL-2-luciferase RLU, Jurkat + CHO/OKT3/PD-L1 aAPC, 50 nM was 2630 RLU; the IL-2-luciferase RLU, Jurkat + CHO/OKT3 aAPC (no PD-L1), 5.6 nM turned out to be 549 RLU; the IL-2-luciferase RLU, Jurkat + CHO/OKT3 aAPC (no PD-L1), 16.7 nM was 544 RLU; the IL-2-luciferase RLU, Jurkat + CHO/OKT3 aAPC (no PD-L1), 50 nM amounted to 600 RLU. In the assay with PD-L1 (human), this substance returned an IL-2 release, primary T cells; K562/OKT3/PD-L1; 1 nM of 311; an IL-2 release, primary T cells; K562/OKT3/PD-L1; 10 nM of 6980; an IL-2 release, primary T cells; K562/OKT3/PD-L1; 100 nM of 8390.

For “CD80 IgV-Fc E35D/L97R (from UniProt P33681 35-141) (Fc fusion)”, the Jurkat/IL2 + CHO/OKT3/PD-L1 reporter assay, RLU at CD80 Conc 5.0 nM with PD-L1 (human) was determined as 914 RLU.

Take “CD80 IgV-Fc E35D/M47L/A71G (from UniProt P33681 35-141) (Fc fusion)”: the Jurkat/IL2 + CHO/OKT3/PD-L1 reporter assay, RLU at CD80 Conc 5.0 nM in the assay with PD-L1 (human) amounted to 1950 RLU.

Turning to “CD80 IgV-Fc H18Y/E35D/M47L/A71G/A91S (from UniProt P33681 35-141) (Fc fusion)”, in the assay with PD-L1 (human), the Jurkat/IL2 + CHO/OKT3/PD-L1 reporter assay, RLU at CD80 Conc 5.0 nM was determined as 1900 RLU.

With “CD80 IgV-Fc E35D/M47V (from UniProt P33681 35-141) (Fc fusion)”, in the assay with PD-L1 (human), the Jurkat/IL2 + CHO/OKT3/PD-L1 reporter assay, RLU at CD80 Conc 5.0 nM worked out at 1350 RLU.

For the substance “CD80 IgV-Fc E35D/M47L/A71G/L85M (from UniProt P33681 35-141) (Fc fusion)”, in the assay with PD-L1 (human), the Jurkat/IL2 + CHO/OKT3/PD-L1 reporter assay, RLU at CD80 Conc 5.0 nM worked out at 1510 RLU.

Consider “CD80 IgV-Fc (inert) H18T/A26N/E35D/M47L/V68M/A71G (from UniProt P33681 35-141) (Fc fusion)”, for which the RLU, Jurkat/IL2 + CHO/OKT3/PD-L1 Reporter Assay, CD80 Conc 5.0 nM with PD-L1 (human) was determined as 1050 RLU.

Regarding “CD80 IgV-Fc E35D/M47V/T62S/L85Q (from UniProt P33681 35-141) (Fc fusion)”, in the assay with PD-L1 (human), the Jurkat/IL2 + CHO/OKT3/PD-L1 reporter assay, RLU at CD80 Conc 5.0 nM was determined as 1400 RLU.

As for “CD80 IgV-Fc (inert) H18V/A26R/E35D/M47L/V68M/A71G/D90G (from UniProt P33681 35-141) (Fc fusion)”, the RLU, Jurkat/IL2 + CHO/OKT3/PD-L1 Reporter Assay, CD80 Conc 5.0 nM with PD-L1 (human) was determined as 738 RLU.

Turning to “CD80 IgV-Fc Q27L/E35D/M47V/I61V/L85M (from UniProt P33681 35-141) (Fc fusion)”, in the assay with PD-L1 (human), the Jurkat/IL2 + CHO/OKT3/PD-L1 reporter assay, RLU at CD80 Conc 5.0 nM turned out to be 1170 RLU.

With “CD80 IgV-Fc M47I/A71G (from UniProt P33681 35-141) (Fc fusion)”, in the assay with PD-L1 (human), the Jurkat/IL2 + CHO/OKT3/PD-L1 reporter assay, RLU at CD80 Conc 5.0 nM amounted to 1760 RLU.

With “CD80 IgV-Fc V22A/E35D/M47L/A71G (from UniProt P33681 35-141) (Fc fusion)”, in the assay with PD-L1 (human), the Jurkat/IL2 + CHO/OKT3/PD-L1 reporter assay, RLU at CD80 Conc 5.0 nM came out at 2580 RLU.

Take “CD80 IgV-Fc E35D/D46E/M47I (from UniProt P33681 35-141) (Fc fusion)”: the Jurkat/IL2 + CHO/OKT3/PD-L1 reporter assay, RLU at CD80 Conc 5.0 nM in the assay with PD-L1 (human) came to 1920 RLU.
